From a protein production outcome set (Wang et al. 2014) come the findings set out here.

The data set is described as follows: label from the status in PepcDB records.
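Also: failed if final PepcDB status was selected cloned or expressed and not failed if soluble or beyond.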

With “MRKIQFPFCILDVIQRKGVRVLYIIIPIVVLLLIFLFAGYVKAPPNKAAIITGLSKNPRVLLGKSGFKVPFFERVDWLEVGQININVVTEDYIPTKDFINIKVDAIAQVAMEVSNNQVSAVAMRNFLNRKADDVRSMITESLQGNLREIIGTMDLKSICQDKAKFSQEVKQNAEQDMKELGIRILSFNVQNVNDKDGLIDDLGIDNRETIRKTARVAKANADRDVEVASAEAANKASEAKVAAELAIAQRNNDLEIRKAELKIGEDTKKAEADAAYEIQKQTSRKTVEIREQEADIARREKEIELQTKEAEVAEKKLDAEIRKKAEADKYAEMQNADAELYRRQKDAEAQQYEAEKEAAAIRAKGLAEAEAIRQKGLAEAEALDKKAEAMKKYGQAAILEMIVGVLPDIAKSVAEPLSAIDKVTVIGGNSDGVSDLAGNVPIIMGKVMESVKEATGIDMNEIIRAETFEGKTTKNINFTGLDQVGEEIAQGAAQSVSETLQETE”, the protein production result is “failed”.

For “MRKKEENLNTASGLRIAMILLGIAVTPVLLSSSSLGNQLSSSSLISVVLLGGVILTLLSAITISVGEKARLPTYGIVKYSFGEKGAIAINILMAISLFGWIAVTANMFGHSVHDLLAQHGLEVPLALLVAAGCVIFVASTAFGFTVLGKIAQVAVPVIALVLCYILYVATHTEVAVPAAIVEMNTGVAVSTVVGTIIVLVATLPDFGSFVHNRKHALIAAGVTFLVAYPLLYWAGATPSAISGQGSLLGAMAVFGAVLPAALLLIFACVTGNAGNMFQGTLVVSTLLTRFPKWQITVALGILSAIVGSMDIMAWFIPFLLFLGIATPPVAGIYIADFFLYRRNGYQESVLAQESQIKVLTFAAWIIGAAVGFMTVKGLFTLTTIPSVDSILVACIAYAILSRASQHR”, the protein production result is recorded as “failed”.

For “MRKSDREAFLSSVLGNEQPPAHLARTVIEEKLRNAIIDGSLPSGTALRQQELATLFGVSRMPVREALRQLEAQSLLRVETHKGAVVAPLITEDAVDAYALRILLESEALRLSIPLLDADDLAAAASYIEQLEVETDFGQIGRLNRMFHLSLYAKTHNKRLMRLVEEGLNEEERFLRFNLSSMGLGKLSQDDHWQLLRLAEQKAVEPCVEALQYHLNRGVQAVTQYLQSQKAGNVKPARTKKNTPA”, the protein production result is listed as “not failed”.

As for “MRKSKLTFIATFLILLFLSMPYKAHAASQTPITRADAEQRALTMINLNWTYSKSKNGVLPSAYSGSITAPSQFRGIENVVATGIPYCWGGFDGLNSSSYGESWTNFTDAVNKGAFVGNVKSSSYGHITGTAGLDCSGFVQATFNIKDYKLSTSTIFNQYFTKIDIKDIKHMDILNLPGNHVVIFDKWGTRNGVNGAYTYEATPDTTYGGIQGTKQYFMSMNTVSQYIPGRYVNIKEVAYVQVINASSLNIRTGPSTSYPIIGTISQNQIAEVTGYSSDGTWYKIKINGIEGYASSTYLTYVNNLEHHHHHH”, the protein production result was “failed”.

Take “MRKTWPLLTLLLCTCASAQLRADIAHNTPPGQATMQVYDGEKVLFQATTPGLNAVTASKFSPDGRWLLNIADGSGYVQLWDTAKGERVKTFLSVYFRIFGADFTPDSERLLLDFSGSKERADPRRPAYFPSPSLWNLATLERISFVYNDKRESFYNGKVTFSQDGERMAFVRPNAYSSGPASVWNAKTGAYIATISRLPYPKGAAQTGGAGAMDARLSPDGQRVLVRYVDNRLAEYDASTGTLLKVRGKFSAADAGAELERFAREGR”: the protein production entry is “failed”.

Take “MRKTYKYRLYTCERNKHLVESIELASVVWNHFVALTRRYYEIYGEYPGYYALKKHLTKLKQRDKGHWYDLNSQALQNVIERLDQAYQRFFEIDSAGRPGFKKREKYTSFTLTQTGWKLLGGNRVRIQNHNYKFVKSRPIKGEIKTVTIKRDACGYLWICFSVEKEPPTPELPRTGNAVGLDFGLKDFLVTSDGDRIQAPEPLQESLEEVQDLHKKLSRKERGSNNRKEAKRRLAKKYRQIDNQRKDFHFKLARRLFSRYDVVCIEELNVGAMKELWGRKVSDLGFASFVKILEHVAQKEGKEVRKIDRWFPSSQTCSDCSHRYEDLSLEERTWTCEECGSLHDRDLNAARNVLERALSSAEAGVRPSGAAARVARSS”: the protein production entry is “failed”.

Turning to “MRKYEIMYIIRPGVEEEAQKALVERFAGVLTNNGAEIINTKEWGKRRLAYEINDLREGFYMILNVNANAEAINEFDRLAKINEDILRHIVVKEEEK”, the protein production entry was “not failed”.

In the case of “MRLAYVKNHEIYGEKLLGLTLRERIEKTLQRAGFDVRFFDELSLEEAEDYLIILEPVLILERDLLLEGRKILVSDGFTVGYFFGGDFRTVFDGNLQSSIEKYLSLNNLESYEIWAIKLSNDNLKTAEKLLLSSLIKAKRTGLKPAYYDGWIAREINRKVSLRISRLLADTSVTPNQITVFSFFLSLVGSALFLLNSYLTTLLAGVIIQLHSIIDGCDGEIARLKFMESKYGAWLDGVLDRYSDFIIVFSITYVLSASNPVYWIIGFLAAFASLMIAYTGDKFVAAYMRTYSPEGFAIPITRDFRLLIIFACSVVNLPSLALVIIALLGNFEALRRIVALRSYTN”, the protein production result is “failed”.

“MRLILNLIWLFFGGIWLALGYVFFGIIACIFIVTIPAGIASFRMANYALWPFGRTVVRNPKAGGFSALSNGLWFIIAGLWLAIGHLTTAAAQAITIIGIPLAIANIRMIPVTCFPFGKEIYDSNRIPFGYEPMVKF”: the protein production entry is reported as “failed”.

On to “MRLILSQCLANLSVRFLMNRNSYNKIAHLWNVARNGFFGREREYLDAILSVAPIGSTILDLGCGTGRPMAEYIVSRGRCVLGVDQSEEMLRLARQKLPHEQWVLSSIESYEPVEGYHGALLWDSLFHIRRTEHELIVSKVVRGLPSGGRLMLTVGGSAHPEFTDFMYGEEFYYDSNTPQETETFLQRLSCRMVIGEYMNLPDGGRDKGRYAIVAEKILEHHHHHH”, for which the protein production entry is “failed”.

Turning to “MRLIVVGIAEDITEKKQLETELQRLATTDVLTQSSNRRHFFECANREFEQARLQGSSLAFLLLDIDDFKVINDTYGHPEGDIVLQRIAESGRAALRRGDLFGRIGGEEFAAVFPGCTADMARQVAERLQREIQRQNFSHQGQTFTITVSQGLTGLLAEDESLDNLFARADSAMYEAKRQGKNRIITGLEHHHHHH”, the protein production result is given as “failed”.

Consider “MRLKKQLLGSLLVVIVVLSIAVATTKQQKGFVTGQPTGALNLSDILDSEELGEYHLMSAAIITGNTVDFSGLGAGPDDPFEIASITKIFTGELLRLQIERGEITESTAVGDVLGERVADSLIRDITVEELANHTSGLPRLGNVGLRPFMATFFDKNPYKDLSADRVISISTTSKLNSRGEFHYSNLGFALLGQVLARNAGLTFDQLLDRDLLAPLNLNNTKLMTPESLAQDAPQGFSTPGKQVEAWEMDGFLPAAGLRSTARDMAVFCQYLFTKGPAPFTWQSLESAPEIVWHNGESFGYSSVLFFNTATTTAIFVAADVATSVFPIGHELLMANSTRQESK”, for which the protein production entry is “failed”.

“MRLLIAGRLFFGLGLALWALGAGPSPARAAGMSLIRDAEIENTIAMIATPLLRAASIGDRAITFRLINDDTINAFATTEMRVFVYTGLFLKTEGPDELKGVIAHEMGHLAGGHLLRMKDEMANASMTALVGMLAGAAAGIASGRGDVGSAVMMGTNQAAMRGFLTFSRTQESSADSFAMRMLDATGQSAAGMLKFFRKLGDQEALITASQDPYVRTHPLTRDRITAVADHVAHSRFSDVPPSPAEVLAYQRAKAKLMAFLKSTGATLAAYPATDRSVAARYARAIAYYRAGDLGRALPLIDGLIAEDPNDPYFEELRGQMLFENQRLREALGSYTKAARLAPTEPLILVSLAHVQVELGDRPLLENALTNLNAALGLDPTNSFAWRQMANASGKLGDEAMAAYYLAEMALSQGDPREALAHAKRAEGRIPKGSPQGLRLQDLIAEAERQKKRQEDRD”: the protein production result is “failed”.

“MRLMIIFDLPVETSEERKEYRKFRKNLINEGFIMIQYSVYVRVCVNKKSAEFTEKRIESFLPSKGVVQSLILTEKQYNDMHFLLGKKIKEVRNSAERTIIL”: the protein production result is reported as “failed”.

Consider “MRLSPAPLKLSRTPALLALALPLAAALAFSDETLDKVPKSEGYCSRILRAQGTRREGYTEFSLRVEGDPDFYKPGTSYRVTLSAAPPSYFRGFTLIALRENREGDKEEDHAGTFQIIDEEETQFMSNCPVAVTESTPRRRTRIQVFWIAPPAGTGCVILKASIVQKRIIYFQDEGSLTKKLCEQDSTFDGVTDKPILDCCACGTAKYRLTFYGNWSEKTHPKDYPRRANHWSAIIGGSHSKNYVLWEYGGYASEGVKQVAELGSPVKMEEEIRQQSDEVLTVIKAKAQWPAWQPLNVRAAPSAEFSVDRTRHLMSFLTMMGPSPDWNVGLSAEDLCTKECGWVQKVVQDLIPWDAGTDSGVTYESPNKPTIPQEKIRPLTSLDHPQSPFYDPEGGSITQVARVVIERIARKGEQCNIVPDNVDDIVADLAPEEKDEDDTPETCIYSNWSPWSACSSSTCDKGKRMRQRMLKAQLDLSVPCPDTQDFQPCMGPGCSDEDGSTCTMSEWITWSPCSISCGMGMRSRERYVKQFPEDGSVCTLPTEETEKCTVNEECSPSSCLMTEWGEWDECSATCGMGMKKRHRMIKMNPADGSMCKAETSQAEKCMMPECHTIPCLLSPWSEWSDCSVTCGKGMRTRQRMLKSLAELGDCNEDLEQVEKCMLPECPIDCELTEWSQWSECNKSCGKGHVIRTRMIQMEPQFGGAPCPETVQRKKCRIRKCLRNPSIQKLRWREARESRRSEQLKEESEGEQFPGCRMRPWTAWSECTKLCGGGIQERYMTVKKRFKSSQFTSCKDKKEIRACNVHPC”, for which the protein production result was “failed”.

Regarding “MRLVERHIVKTNHQFYKEIDDLAWRSKNLYNYVNYLVRQSFIFDGKYLNNAAIFHLVKHHESYTALPRKVSNQVLMVLHRNWKSFFETHKAYKQNPSKFKGCPKLPKYKNKEKGRNIVIYELGAISKPLLKQGVIKLSQTEIQFPTKASNIQQVRLIPQCGQYVVEVVYLQDATPQQLNPDWVAGIDIGLDNLAALTSNKPGFKPVLVNGRPLKAINQQYNKAKARLQSQLKGNAKTSRRIQALTCKRNNRIDNYLHNASRWIINHLASAGIGTLVIGKNDQWKQEINLGTTTNQNFVSIPHARFIEQLKYKAELVAMTVLINEESYTSASSFLDLDPIPVYQEGVKHSFSGKRIKRAWYQSANGRFIHADINASLNITRKVVPAAFSLGIAGIAVCPSRITPGKVAI”, the protein production result is “failed”.

Consider “MRLVQLSRHSIAFPSPEGALREPNGLLALGGDLSPARLLMAYQRGIFPWFSPGDPILWWSPDPRAVLWPESLHISRSMKRFHKRSPYRVTMNYAFGQVIEGCASDREEGTWITRGVVEAYHRLHELGHAHSIEVWREBELVGGMYGVAQGTLFCGESMFSRMENASKTALLVFCEEFIGHGGKLIDCQVLNDHTASLGACEIPRRNYLNYLNQMRLGRLPNNFWVPRCLFSPQE”, for which the protein production result is “not failed”.

For “MRLYERSSCLLQPPDYSLMNDSTDAQDVSQARVWLWAARPKTLGAAVAPVLVGTGMALEAGAWHLLSALLALAGAVLIQVGVNYHNDYADYVQGADTQERVGPLRVTQAGLVAPQTMRRATILVFGLAVMAGLYLIARGGWPILAVGVASIGAAIWYTAGRYSLAALGLADVFVFVFFGPVAVGGTYYVQALSLPTEVLLAGGGPGLLSIGILLVNNVRDVAEDRRAGKRTLVVRFGRRFGVAAYGACLVGALLLAGLLAAGLFGTTPHPWAALPLGLLPLAIGPIRRLSETTDPEKLNPLLGATGRILVLWALLFAVGWNL”, the protein production entry is reported as “failed”.

On to “MRLYKIGLVLLLWVFAVTAQAELRFPALSGRVVDDAQMIEPTISALLTRQLQAHEQATGEQLVVVTLPDLQGASIEEFGYQLGRHWGIGQKDKNNGALLIVARDERKLRIEVGYGLEERLTDAQASVIINQVITPAFKTGQFSKGISDGVSAMLLVLGGTPLDEPTTVYDSGDSSSQDDFVQRHPLLFIFLVLLFILVIMVAQALGLITTTSGRGGGGGGGFGGFGGGSGGGGGFSGGGGSFGGGGSSGGWLEHHHHHH”, for which the protein production entry is given as “failed”.
